In the supplement of paper PMC9112550, “Optimization of the antimicrobial peptide Bac7 by deep mutational scanning” (BMC Biology, 2022):

System: Escherichia coli TOP10
Assay: shrunken log2 fold change of peptide-encoding DNA abundance (4.5 h post-induction vs induction); higher = less antimicrobial activity (less host growth inhibition)
Conditions: time post-induction: 4.5 h; library: site-saturation at positions 5, 18, 19, 20
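Note: peptides expressed intracellularly from a pBAD plasmid library in pooled LB shake-flask culture, induced with 0.3% L-arabinose, DNA abundance read by NGS, three biological replicates, DESeq2 with apeglm shrinkage.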

RRIRPRPPRLPRPRPRPIDFPRP
shrunken log2 fold change: -0.125

RRIRPRPPRLPRPRPRPIDKPRP
shrunken log2 fold change: -0.188

RRIRPRPPRLPRPRPRPIDTPRP
shrunken log2 fold change: -0.35

RRIRPRPPRLPRPRPRPIDYPRP
shrunken log2 fold change: -0.13

RRIRPRPPRLPRPRPRPIEMPRP
shrunken log2 fold change: 0.00861

RRIRPRPPRLPRPRPRPIILPRP
shrunken log2 fold change: -0.0642

RRIRPRPPRLPRPRPRPIKAPRP
shrunken log2 fold change: -0.00863

RRIRPRPPRLPRPRPRPILIPRP
shrunken log2 fold change: -0.106

RRIRPRPPRLPRPRPRPILWPRP
shrunken log2 fold change: 0.0824

RRIRPRPPRLPRPRPRPIMQPRP
shrunken log2 fold change: -0.391

RRIRPRPPRLPRPRPRPINMPRP
shrunken log2 fold change: -0.503

RRIRPRPPRLPRPRPRPIPNPRP
shrunken log2 fold change: -0.353

RRIRPRPPRLPRPRPRPIPWPRP
shrunken log2 fold change: 0.00327

RRIRPRPPRLPRPRPRPIRWPRP
shrunken log2 fold change: -0.0338

RRIRPRPPRLPRPRPRPISLPRP
shrunken log2 fold change: -0.427

RRIRPRPPRLPRPRPRPISQPRP
shrunken log2 fold change: -0.0721

RRIRPRPPRLPRPRPRPITAPRP
shrunken log2 fold change: -0.187

RRIRPRPPRLPRPRPRPIVIPRP
shrunken log2 fold change: -0.328

RRIRPRPPRLPRPRPRPIVKPRP
shrunken log2 fold change: 0.000733

RRIRPRPPRLPRPRPRPIWGPRP
shrunken log2 fold change: 0.0815

RRIRPRPPRLPRPRPRPIYEPRP
shrunken log2 fold change: -0.0945

RRIRPRPPRLPRPRPRPIYYPRP
shrunken log2 fold change: -0.323

RRIRPRPPRLPRPRPRPKCEPRP
shrunken log2 fold change: -0.187

RRIRPRPPRLPRPRPRPKCFPRP
shrunken log2 fold change: 0.434

RRIRPRPPRLPRPRPRPKCNPRP
shrunken log2 fold change: -0.125

RRIRPRPPRLPRPRPRPKDDPRP
shrunken log2 fold change: -0.0737

RRIRPRPPRLPRPRPRPKDTPRP
shrunken log2 fold change: -0.173

RRIRPRPPRLPRPRPRPKEYPRP
shrunken log2 fold change: -0.356

RRIRPRPPRLPRPRPRPKHAPRP
shrunken log2 fold change: 0.824

RRIRPRPPRLPRPRPRPKIAPRP
shrunken log2 fold change: -0.1

RRIRPRPPRLPRPRPRPKINPRP
shrunken log2 fold change: -0.32

RRIRPRPPRLPRPRPRPKIWPRP
shrunken log2 fold change: 0.407

RRIRPRPPRLPRPRPRPKKGPRP
shrunken log2 fold change: -0.0676

RRIRPRPPRLPRPRPRPKMNPRP
shrunken log2 fold change: -0.273

RRIRPRPPRLPRPRPRPKNIPRP
shrunken log2 fold change: -0.719

RRIRPRPPRLPRPRPRPKNVPRP
shrunken log2 fold change: -0.169

RRIRPRPPRLPRPRPRPKPLPRP
shrunken log2 fold change: 0.567

RRIRPRPPRLPRPRPRPKPTPRP
shrunken log2 fold change: 0.434

RRIRPRPPRLPRPRPRPKQKPRP
shrunken log2 fold change: 0.123

RRIRPRPPRLPRPRPRPKRAPRP
shrunken log2 fold change: 0.395

RRIRPRPPRLPRPRPRPKRHPRP
shrunken log2 fold change: 0.267

RRIRPRPPRLPRPRPRPKRNPRP
shrunken log2 fold change: 0.142

RRIRPRPPRLPRPRPRPKSVPRP
shrunken log2 fold change: -0.119

RRIRPRPPRLPRPRPRPKTPPRP
shrunken log2 fold change: 0.0677

RRIRPRPPRLPRPRPRPKWDPRP
shrunken log2 fold change: 0.319

RRIRPRPPRLPRPRPRPKWKPRP
shrunken log2 fold change: -0.0038

RRIRPRPPRLPRPRPRPLCAPRP
shrunken log2 fold change: 0.119

RRIRPRPPRLPRPRPRPLCGPRP
shrunken log2 fold change: 0.623

RRIRPRPPRLPRPRPRPLCMPRP
shrunken log2 fold change: -0.444

RRIRPRPPRLPRPRPRPLDAPRP
shrunken log2 fold change: 0.131

RRIRPRPPRLPRPRPRPLFIPRP
shrunken log2 fold change: -0.459

RRIRPRPPRLPRPRPRPLFWPRP
shrunken log2 fold change: 0.296

RRIRPRPPRLPRPRPRPLFYPRP
shrunken log2 fold change: -0.383

RRIRPRPPRLPRPRPRPLGGPRP
shrunken log2 fold change: 1.53

RRIRPRPPRLPRPRPRPLHPPRP
shrunken log2 fold change: 0.252

RRIRPRPPRLPRPRPRPLIEPRP
shrunken log2 fold change: -0.0879

RRIRPRPPRLPRPRPRPLIKPRP
shrunken log2 fold change: -0.268

RRIRPRPPRLPRPRPRPLLNPRP
shrunken log2 fold change: -0.224

RRIRPRPPRLPRPRPRPLMPPRP
shrunken log2 fold change: -0.188

RRIRPRPPRLPRPRPRPLNYPRP
shrunken log2 fold change: -0.615

RRIRPRPPRLPRPRPRPLPMPRP
shrunken log2 fold change: 0.53

RRIRPRPPRLPRPRPRPLQCPRP
shrunken log2 fold change: -1.25

RRIRPRPPRLPRPRPRPLQEPRP
shrunken log2 fold change: 0.18

RRIRPRPPRLPRPRPRPLQKPRP
shrunken log2 fold change: -0.0453

RRIRPRPPRLPRPRPRPLSNPRP
shrunken log2 fold change: -0.1

RRIRPRPPRLPRPRPRPLTDPRP
shrunken log2 fold change: 0.111

RRIRPRPPRLPRPRPRPLTMPRP
shrunken log2 fold change: -0.186

RRIRPRPPRLPRPRPRPLWWPRP
shrunken log2 fold change: 0.649

RRIRPRPPRLPRPRPRPMAAPRP
shrunken log2 fold change: 0.208

RRIRPRPPRLPRPRPRPMCNPRP
shrunken log2 fold change: -0.075

RRIRPRPPRLPRPRPRPMCYPRP
shrunken log2 fold change: -0.221

RRIRPRPPRLPRPRPRPMDFPRP
shrunken log2 fold change: -0.115

RRIRPRPPRLPRPRPRPMDPPRP
shrunken log2 fold change: 0.0118

RRIRPRPPRLPRPRPRPMEKPRP
shrunken log2 fold change: -0.00992

RRIRPRPPRLPRPRPRPMELPRP
shrunken log2 fold change: -0.00106

RRIRPRPPRLPRPRPRPMFRPRP
shrunken log2 fold change: -0.119

RRIRPRPPRLPRPRPRPMGRPRP
shrunken log2 fold change: -0.0125

RRIRPRPPRLPRPRPRPMICPRP
shrunken log2 fold change: -0.172

RRIRPRPPRLPRPRPRPMLKPRP
shrunken log2 fold change: 0.0171

RRIRPRPPRLPRPRPRPMLQPRP
shrunken log2 fold change: -0.105

RRIRPRPPRLPRPRPRPMMMPRP
shrunken log2 fold change: -0.167

RRIRPRPPRLPRPRPRPMNFPRP
shrunken log2 fold change: -0.165

RRIRPRPPRLPRPRPRPMNSPRP
shrunken log2 fold change: -0.125

RRIRPRPPRLPRPRPRPMSAPRP
shrunken log2 fold change: 0.0743

RRIRPRPPRLPRPRPRPMSPPRP
shrunken log2 fold change: -0.194

RRIRPRPPRLPRPRPRPMTIPRP
shrunken log2 fold change: -0.421

RRIRPRPPRLPRPRPRPMWSPRP
shrunken log2 fold change: -0.276

RRIRPRPPRLPRPRPRPNDYPRP
shrunken log2 fold change: -0.307

RRIRPRPPRLPRPRPRPNEEPRP
shrunken log2 fold change: -0.0581

RRIRPRPPRLPRPRPRPNESPRP
shrunken log2 fold change: -0.00438

RRIRPRPPRLPRPRPRPNITPRP
shrunken log2 fold change: -0.293

RRIRPRPPRLPRPRPRPNKEPRP
shrunken log2 fold change: -0.406

RRIRPRPPRLPRPRPRPNKTPRP
shrunken log2 fold change: -0.0733

RRIRPRPPRLPRPRPRPNKYPRP
shrunken log2 fold change: -0.662

RRIRPRPPRLPRPRPRPNLLPRP
shrunken log2 fold change: 0.0634

RRIRPRPPRLPRPRPRPNMMPRP
shrunken log2 fold change: -0.593

RRIRPRPPRLPRPRPRPNNPPRP
shrunken log2 fold change: -0.415

RRIRPRPPRLPRPRPRPNQGPRP
shrunken log2 fold change: -0.55

RRIRPRPPRLPRPRPRPNRVPRP
shrunken log2 fold change: -0.275

RRIRPRPPRLPRPRPRPNVTPRP
shrunken log2 fold change: 0.209

RRIRPRPPRLPRPRPRPNWHPRP
shrunken log2 fold change: -0.0472

RRIRPRPPRLPRPRPRPNYAPRP
shrunken log2 fold change: -0.0849

RRIRPRPPRLPRPRPRPPAYPRP
shrunken log2 fold change: -0.0312

RRIRPRPPRLPRPRPRPPCGPRP
shrunken log2 fold change: 0.254

RRIRPRPPRLPRPRPRPPCRPRP
shrunken log2 fold change: 0.339

RRIRPRPPRLPRPRPRPPDAPRP
shrunken log2 fold change: 0.553

RRIRPRPPRLPRPRPRPPDIPRP
shrunken log2 fold change: -0.602

RRIRPRPPRLPRPRPRPPFPPRP
shrunken log2 fold change: 0.454

RRIRPRPPRLPRPRPRPPGEPRP
shrunken log2 fold change: 0.00468
